Measurements from the Human Domainome abundance scans (Beltran et al. 2025).
± gives the uncertainty stated by the source.

B1: Unconventional myosin-Ie, residues 1051 to 1108; numbered along this chain, Q12965 (parent)
chain: PQVPQCKALYAYDAQDTDELSFNANDIIDIIKEDPSGWWTGRLRGKQGLFPNNYVTKI

Variants of: B1
Test: abundance fitness (aPCA) (normalised: wild type 0, dead -1); higher = more abundant; growth selection in yeast, the domain comes from the species named
Conditions: Homo sapiens

Point of comparison: PQVPQCKALYTYDAQDTDELSFNANDIIDIIKEDPSGWWTGRLRGKQGLFPNNYVTKI [A11T], abundance fitness -0.218 ± 0.076. Against it:
- PQVPQCKALYAYDAQDTDECSFNANDIIDIIKEDPSGWWTGRLRGKQGLFPNNYVTKI [L20C] — lower, -0.708 ± 0.19
- PQVPQCKALYAYDAQDTDEWSFNANDIIDIIKEDPSGWWTGRLRGKQGLFPNNYVTKI [L20W] — lower, -1.01 ± 0.066
- PQVPQCKALYAYDAQDTDEPSFNANDIIDIIKEDPSGWWTGRLRGKQGLFPNNYVTKI [L20P] — lower, -1.11 ± 0.11
- PQVPQCKALYAYDAQDTDELSFNQNDIIDIIKEDPSGWWTGRLRGKQGLFPNNYVTKI [A24Q] — within error, -0.164 ± 0.07
- PQVPQCKALYAYDAQDTDELSFNCNDIIDIIKEDPSGWWTGRLRGKQGLFPNNYVTKI [A24C] — within error, -0.213 ± 0.1
- PQVPQCKALYAYDAQDTDELSFNANDIIDIIKEDPSGWWTGRLRGKQGCFPNNYVTKI [L49C] — higher, -0.025 ± 0.067
- PQVPQCKALYAYDAQDTDELSFNANDIIDIIKEDPSGWWTGRLRGKQGHFPNNYVTKI [L49H] — within error, -0.317 ± 0.12
- PQVPQCKALYAYDTQDTDELSFNANDIIDIIKEDPSGWWTGRLRGKQGLFPNNYVTKI [A14T] — within error, -0.374 ± 0.11
- PQVPQCKALYAYDAQDTDELSFNANDIIDIIKEDPSGWWTGRLRGPQGLFPNNYVTKI [K46P] — lower, -0.715 ± 0.21
- PQVPQCKALYAYDAQDTDELSFNANDIIDIIKEDPSGWWTGRLRGKQGLFPNNYVGKI [T56G] — within error, -0.255 ± 0.044
- PQVPQCKALYAYDAQDTDELSFNANDIIDIIKEDPSGWWFGRLRGKQGLFPNNYVTKI [T40F] — lower, -0.479 ± 0.18
- PQVPQCKALYAYDAQDTDELSFNANDIIDIIKEDPSGWWAGRLRGKQGLFPNNYVTKI [T40A] — within error, -0.175 ± 0.068
- PQVPQCKALYAYDAQDTDELSFNANDIIDIIKEDPSGWWSGRLRGKQGLFPNNYVTKI [T40S] — higher, -0.082 ± 0.05
- PQVPQCKALYAYDAQDTDELSFNAPDIIDIIKEDPSGWWTGRLRGKQGLFPNNYVTKI [N25P] — lower, -0.878 ± 0.12
- PQVPQCKALYAYDAQDTDELSFNAYDIIDIIKEDPSGWWTGRLRGKQGLFPNNYVTKI [N25Y] — lower, -0.541 ± 0.11
- PQVPQCKALYAYDAQDTDELSFNAEDIIDIIKEDPSGWWTGRLRGKQGLFPNNYVTKI [N25E] — within error, -0.117 ± 0.064
- PQVPQCKALYAYDAQDTDELSFNANDIIDIIKEDPSGWWTCRLRGKQGLFPNNYVTKI [G41C] — lower, -0.813 ± 0.059
- PQVPQCKALYAYDAQDTDYLSFNANDIIDIIKEDPSGWWTGRLRGKQGLFPNNYVTKI [E19Y] — higher, 0.191 ± 0.074
- PQVPQCKALYAYDAQDTDCLSFNANDIIDIIKEDPSGWWTGRLRGKQGLFPNNYVTKI [E19C] — within error, -0.123 ± 0.074
- PQVPQCKALYAYDAQDTDPLSFNANDIIDIIKEDPSGWWTGRLRGKQGLFPNNYVTKI [E19P] — lower, -0.925 ± 0.063
- PQVPQCKASYAYDAQDTDELSFNANDIIDIIKEDPSGWWTGRLRGKQGLFPNNYVTKI [L9S] — within error, -0.3 ± 0.059
- SQVPQCKALYAYDAQDTDELSFNANDIIDIIKEDPSGWWTGRLRGKQGLFPNNYVTKI [P1S] — higher, 0.006 ± 0.089
- LQVPQCKALYAYDAQDTDELSFNANDIIDIIKEDPSGWWTGRLRGKQGLFPNNYVTKI [P1L] — higher, 0.072 ± 0.069
- QQVPQCKALYAYDAQDTDELSFNANDIIDIIKEDPSGWWTGRLRGKQGLFPNNYVTKI [P1Q] — higher, 0.05 ± 0.093
- PQVPQCKALYAYDAQDTDELSFNANDIIDIIKEDPSGWWTGRLRGKQGLFPYNYVTKI [N52Y] — within error, -0.209 ± 0.11
- PQVPQCKALYAYDAQDTDELSFNANDIIDIIKEDPSGWWTGRLRGKQGLFPRNYVTKI [N52R] — within error, -0.114 ± 0.06
- PQVPQCKALYAYDAQDTDELSFNANDIIDIIKEDPSGWWTGRLRGKQGLFPDNYVTKI [N52D] — within error, -0.195 ± 0.08
- PQVPQCKALYAYDAQDTDELSFTANDIIDIIKEDPSGWWTGRLRGKQGLFPNNYVTKI [N23T] — higher, -0.01 ± 0.03
- PQVPQCKALYAYDAQDTDELSFEANDIIDIIKEDPSGWWTGRLRGKQGLFPNNYVTKI [N23E] — higher, 0.005 ± 0.041
- PQVPQCKALYAYDAQDTDELSFNANDIIDIIKADPSGWWTGRLRGKQGLFPNNYVTKI [E33A] — within error, -0.236 ± 0.042
- PQVPQCKALYFYDAQDTDELSFNANDIIDIIKEDPSGWWTGRLRGKQGLFPNNYVTKI [A11F] — within error, -0.388 ± 0.12
- PQVPQCKALYRYDAQDTDELSFNANDIIDIIKEDPSGWWTGRLRGKQGLFPNNYVTKI [A11R] — higher, 0.025 ± 0.03
- PQVPQCKALYAYDAQDTGELSFNANDIIDIIKEDPSGWWTGRLRGKQGLFPNNYVTKI [D18G] — higher, -0.056 ± 0.038
- PQVPQCKALYAYDAQDTCELSFNANDIIDIIKEDPSGWWTGRLRGKQGLFPNNYVTKI [D18C] — higher, -0.05 ± 0.059
- PQVPQCKALQAYDAQDTDELSFNANDIIDIIKEDPSGWWTGRLRGKQGLFPNNYVTKI [Y10Q] — higher, -0.054 ± 0.057
- PQVPQCKALHAYDAQDTDELSFNANDIIDIIKEDPSGWWTGRLRGKQGLFPNNYVTKI [Y10H] — within error, -0.135 ± 0.072
- PQVPQCKALYAYDAQDTDELSFNANDCIDIIKEDPSGWWTGRLRGKQGLFPNNYVTKI [I27C] — within error, -0.261 ± 0.059
- PQVPQCKALYAYDAQDTDELSFNANDYIDIIKEDPSGWWTGRLRGKQGLFPNNYVTKI [I27Y] — within error, -0.19 ± 0.042
- PQVPQCKALYAYDAQDTDELSFNANDIIDIIKEDPSGWWTGRLRGKQGLFPNLYVTKI [N53L] — within error, -0.188 ± 0.054
- PQVPQCKALYAYDAQDTDELSFNANDIIDIIKEDPSGWWTGRLRGKQGLFPNAYVTKI [N53A] — within error, -0.147 ± 0.056
- PQVPQCKALYAYDAHDTDELSFNANDIIDIIKEDPSGWWTGRLRGKQGLFPNNYVTKI [Q15H] — within error, -0.28 ± 0.13
- PQVPQCKALYAYDAQDTDELSSNANDIIDIIKEDPSGWWTGRLRGKQGLFPNNYVTKI [F22S] — lower, -0.766 ± 0.073
- PQVPQCKALYAYDAQDTDELSINANDIIDIIKEDPSGWWTGRLRGKQGLFPNNYVTKI [F22I] — lower, -0.409 ± 0.073
- PQVPQCKALYAYDAQDTDELSFNANDIIDIIKEDPSGWWTGELRGKQGLFPNNYVTKI [R42E] — higher, -0.049 ± 0.049
